The source of these data is US20220289796A1.

Test [1] has as its target DENV2 sE HCat3, displayed on EXPI293F cells (Dengue virus 2 strain 16681). The test can be described thus: flow cytometry, EXPI293F surface display, RT (~23 C). For orientation: In flow cytometry, cells or beads pass a laser one at a time.
The target of test [2] is DENV2 sE Mnmer1, displayed on EXPI293F cells (Dengue virus 2 strain 16681). The test is described as above.
The target of test [3] is DENV2 sE UndPk6, displayed on EXPI293F cells (Dengue virus 2 strain 16681). The test is described as above.
The target of test [4] is DENV2 sE WT, displayed on EXPI293F cells (Dengue virus 2 strain 16681). Described as above.
Test [5] concerns the target DENV2 sE SHP2, displayed on EXPI293F cells (Dengue virus 2 strain 16681). The test is described as above.
The target of test [6] is DENV2 sE IntFc8, displayed on EXPI293F cells (Dengue virus 2 strain 16681). Described as above.
For test [7], the target named is DENV2 sE PM4, displayed on EXPI293F cells (Dengue virus 2 strain 16681). Described as above.
Test [8] addresses DENV2 sE IntFc2, displayed on EXPI293F cells (Dengue virus 2 strain 16681). Described as above.
Test [9] has as its target DENV2 sE Cm2, displayed on EXPI293F cells (Dengue virus 2 strain 16681). Described as above.
In test [10] the target is DENV2 sE IntFc6, displayed on EXPI293F cells (Dengue virus 2 strain 16681). The description is as above.
Test [11] deals with DENV2 sE Mnmer2, displayed on EXPI293F cells (Dengue virus 2 strain 16681). The test is described as above.
The target in test [12] is DENV2 sE SHP1, displayed on EXPI293F cells (Dengue virus 2 strain 16681). The description is as above.
Test [13] addresses DENV2 sE Cm1, displayed on EXPI293F cells (Dengue virus 2 strain 16681). The test is described as above.
The target in test [14] is DENV2 sE PM2, displayed on EXPI293F cells (Dengue virus 2 strain 16681). Described as above.
The target in test [15] is DENV2 sE HCat3, displayed on EXPI293F cells (Dengue virus 2 strain 16681). Put plainly: flow cytometry, EXPI293F surface display, 40 C.
Test [16] addresses DENV2 sE Mnmer1, displayed on EXPI293F cells (Dengue virus 2 strain 16681). Put plainly: flow cytometry, EXPI293F surface display, 40 C.
The target in test [17] is DENV2 sE UndPk6, displayed on EXPI293F cells (Dengue virus 2 strain 16681). The test can be described thus: flow cytometry, EXPI293F surface display, 40 C.
Test [18] deals with DENV2 sE WT, displayed on EXPI293F cells (Dengue virus 2 strain 16681). Put plainly: flow cytometry, EXPI293F surface display, 40 C.
Test [19] addresses DENV2 sE SHP2, displayed on EXPI293F cells (Dengue virus 2 strain 16681). The test can be described thus: flow cytometry, EXPI293F surface display, 40 C.
The target in test [20] is DENV2 sE IntFc8, displayed on EXPI293F cells (Dengue virus 2 strain 16681). The test can be described thus: flow cytometry, EXPI293F surface display, 40 C.
Test [21] has as its target DENV2 sE PM4, displayed on EXPI293F cells (Dengue virus 2 strain 16681). Put plainly: flow cytometry, EXPI293F surface display, 40 C.
Test [22] addresses DENV2 sE IntFc2, displayed on EXPI293F cells (Dengue virus 2 strain 16681). The test can be described thus: flow cytometry, EXPI293F surface display, 40 C.
Test [23] concerns the target DENV2 sE Cm2, displayed on EXPI293F cells (Dengue virus 2 strain 16681). The test can be described thus: flow cytometry, EXPI293F surface display, 40 C.
Test [24] has as its target DENV2 sE IntFc6, displayed on EXPI293F cells (Dengue virus 2 strain 16681). Put plainly: flow cytometry, EXPI293F surface display, 40 C.
The target in test [25] is DENV2 sE Mnmer2, displayed on EXPI293F cells (Dengue virus 2 strain 16681). The test can be described thus: flow cytometry, EXPI293F surface display, 40 C.
Test [26] concerns the target DENV2 sE SHP1, displayed on EXPI293F cells (Dengue virus 2 strain 16681). Put plainly: flow cytometry, EXPI293F surface display, 40 C.
In test [27] the target is DENV2 sE Cm1, displayed on EXPI293F cells (Dengue virus 2 strain 16681). Put plainly: flow cytometry, EXPI293F surface display, 40 C.
Test [28] addresses DENV2 sE PM2, displayed on EXPI293F cells (Dengue virus 2 strain 16681). The test can be described thus: flow cytometry, EXPI293F surface display, 40 C.
Test [29] addresses DENV2 sE WT (Dengue virus 2 strain 16681) (UniProt P29990). The test can be described thus: nanoDSF Van't Hoff, homodimer, 37 C. Set-up: TΔS°bind: unit not given here. (In general: In DSF a fluorescence change marks the thermal transition of the protein.)
Test [30] deals with DENV2 sE HCat3, displayed on EXPI293F cells (Dengue virus 2 strain 16681). The test can be described thus: flow cytometry, displayed sE, 40 C.
Test [31] has as its target DENV2 sE UndPk6, displayed on EXPI293F cells (Dengue virus 2 strain 16681). The test can be described thus: flow cytometry, displayed sE, 40 C.
The target in test [32] is DENV2 sE SHP2, displayed on EXPI293F cells (Dengue virus 2 strain 16681). Put plainly: flow cytometry, displayed sE, 40 C.
Test [33] deals with DENV2 sE IntFc8, displayed on EXPI293F cells (Dengue virus 2 strain 16681). Put plainly: flow cytometry, displayed sE, 40 C.
The target of test [34] is DENV2 sE PM4, displayed on EXPI293F cells (Dengue virus 2 strain 16681). Put plainly: flow cytometry, displayed sE, 40 C.
The target of test [35] is DENV2 sE IntFc2, displayed on EXPI293F cells (Dengue virus 2 strain 16681). Put plainly: flow cytometry, displayed sE, 40 C.
Test [36] addresses DENV2 sE SHP1, displayed on EXPI293F cells (Dengue virus 2 strain 16681). The test can be described thus: flow cytometry, displayed sE, 40 C.
Test [37] addresses DENV2 sE PM2, displayed on EXPI293F cells (Dengue virus 2 strain 16681). The test can be described thus: flow cytometry, displayed sE, 40 C.

Turning to 1C19 (antibody), the Fluorescence Ratio (Fr, Var/WT) in test [1] is 1.5; in test [2] it was 0.2; in test [3] it was 2.4; in test [4] it was 1; in [5], 1.2; in [6] it was 2. Moreover, the Fluorescence Ratio (Fr, Var/WT) in test [7] amounted to 2.1; in [8], 1.4; in test [9] it was 0.6; in [10], 0.8; in test [11] it was 0.8; in test [12] it was 1.3. Moreover, the Fluorescence Ratio (Fr, Var/WT) in [13] worked out at 0.9; in test [14], 1.7; in test [15] it was 2.5; in [16] it was 0; in test [17] it was 2.9; in test [18], 1. In addition, the Fluorescence Ratio (Fr, Var/WT) in test [19] stood at 1.9; in test [20], 3.5; in test [21] it was 3.1; in [22], 2.5; in [23] it was 1.6; in [24], 0. The Fluorescence Ratio (Fr, Var/WT) was 0.8 in test [25], 1.8 in test [26], 3.2 in [27] and 2.5 in test [28].

3H5 (antibody): the Fluorescence Ratio (Fr, Var/WT) in test [1] was found to be 0.7; in [2], 0.3; in test [3], 0.8; in [4], 1; in test [5], 0.6; in test [6], 0.5. The Fluorescence Ratio (Fr, Var/WT) came to 0.8 in test [7]; 0.8 in test [8]; 0.4 in test [9]; 0.6 in test [10]; 0.8 in test [11]; 0.7 in [12]. Besides, the Fluorescence Ratio (Fr, Var/WT) in test [13] turned out to be 0.5; in test [14], 0.7; in test [15], 0.6; in test [16] it was 0; in test [17], 0.4; in test [18], 1. For the same substance, the Fluorescence Ratio (Fr, Var/WT) was 0.5 in test [19]; 0.4 in [20]; 0.4 in test [21]; 0.6 in test [22]; 0.6 in test [23]; 0 in test [24]. Further, the Fluorescence Ratio (Fr, Var/WT) in test [25] came out at 0.8; in [26], 0.5; in test [27] it was 0.6; in test [28], 0.5.

As for “DENV2 sE WT (from UniProt P29990 281-677)”, in [29], the Kd (usually the constant that tells how readily two partners part at equilibrium) worked out at 13 µM, the TΔS°bind was -67.1, the ΔG°bind was -6.9 kcal/mol and the ΔH°bind is -74.1 kcal/mol.

Consider EDE1 C8 (antibody), for which the Fluorescence Ratio (Fr, Var/WT) is 1.9 in [1]; 0.7 in [2]; 2.3 in test [3]; 1 in [4]; 2.3 in test [5]; 3.3 in [6]. The Fluorescence Ratio (Fr, Var/WT) in test [7] worked out at 3.2; in test [8] it was 1.3; in test [9] it was 1.7; in test [10] it was 1.3; in test [11] it was 2.7; in test [12], 2.9. The values for the Fluorescence Ratio (Fr, Var/WT) in test [13] and in test [14] were 0.9 and 2.4, respectively.

For the substance EDE1 C10 (antibody), the Fluorescence Ratio (Fr, Var/WT) in test [15] was 3; in test [16], 0; in test [17], 4.1; in test [18] it was 1; in [19], 3.8; in test [20], 5.9. Further, the Fluorescence Ratio (Fr, Var/WT) in test [22] is 3.4; in test [23], 3.8; in [24] it was 0; in test [25], 0.1; in test [26] it was 5.6; in test [28], 3.7. Besides, the Fr (geometric mean fluorescence intensity ratio, variant/WT) in test [30], in test [31], in [32], in [33], in test [34] and in test [35] was more than 2 fold in each case. For the same substance, the Fr (geometric mean fluorescence intensity ratio, variant/WT) in test [36] and in test [37] was more than 2 fold each time.
